Where two headings read alike, the source gives them in different places. Marks after values point to notes of the source that are not given here. *1 amine or outer side, *2 acyl side, *3 side chain or, on linkers, in order; H or OH if unused. Where a SMILES comes first, the peptide text is derived from it. Bridges are numbered along the chain shown (N, C = ends). Primed or numbered codes have the meaning given here. Side-chain parts run from the residue outwards. [ ]: non-standard residue; d: D form. The star is where a group is joined. βAsp = O=C(O)[C@H](CC(=O)[*:2])N[*:1]; SMCC = sulfo-SMCC linker; OH′ = O*
What was measured:
WEHI-164 fibrosarcoma = experiment: Tumor growth in WEHI-164 fibrosarcoma-bearing mice; type: in vivo; conditions: WEHI-164 model, i.p., biweekly, 0.032 to 20 μg
αvβ3 = target: T1, αvβ3 (Homo sapiens, UniProt P05106+P06756); experiment: Competitive integrin binding assay (isoDGR/STV-HRP) on αvβ3-coated plates; conditions: number in parenthesis
T1 construct: purchased Immunological Sciences (Rome, Italy)
Procedure: (§1) A conjugate consisting of biotinylated acetyl-Ciso[…] (SEQ ID NO:36) peptide complexed with streptavidin-peroxidase conjugate (isoDGR/STV-HRP) was first prepared as described previously. […] Each mixture was then added to microtiter plates coated with integrins (αvβ3, αvβ5, αvβ6, […], or α5β1) and incubated for 2 h at room temperature. After washing, each well was incubated with 70 μl of chromogenic solution (o-phenylenediamine dihydrochloride) for 20 min, at room temperature. The chromogenic reaction was stopped by adding an equal volume of 1 N sulfuric acid. The absorbance at 490 nm was then measured using a microtiter plate reader.
(§2) The binding affinity and selectivity of each peptide for different integrins were then analyzed by competitive binding assay, using αvβ3-, αvβ5-, αvβ6-, αvβ8- and α5β1-coated plates and isoDGR/STV-HRP, an ac-isoDGR-2C/peroxidase complex, as competitor.

αvβ5 = target: T2, αvβ5 (Homo sapiens, UniProt P06756+P18084); experiment: Competitive integrin binding assay (isoDGR/STV-HRP) on αvβ5-coated plates; conditions: number in parenthesis
T2 construct: purchased Immunological Sciences (Rome, Italy)
Procedure: as §1, §2

αvβ6 = target: T3, αvβ6 (Homo sapiens, UniProt P06756+P18564); experiment: Competitive integrin binding assay (isoDGR/STV-HRP) on αvβ6-coated plates; conditions: number in parenthesis
T3 construct: purchased R&D System (Minneapolis, Minn.)
Procedure: as §1, §2

α5β1 = target: T4, α5β1 (Homo sapiens, UniProt P05556+P08648); experiment: Competitive integrin binding assay (isoDGR/STV-HRP) on α5β1-coated plates; conditions: number in parenthesis
T4 construct: purchased Immunological Sciences (Rome, Italy)
Procedure: as §1, §2

[1] = tested on: EA.hy926 endothelial cells; experiment: Endothelial cell adhesion to vitronectin-coated plates; type: cell-based, human; conditions: EA.hy926, substance added to supernatant
Procedure: Endothelial cell (EA.hy926) adhesion to microtiter plates coated with human vitronectin was carried out as described ([25]). IsoDGR#1 and isoDGR#3 were added to the supernatant during cell adhesion. […] Mean±S.E (n=3).
Cell adhesion was quantified by spectrophotometric measurement (A570 nm).

αvβ8 = target: T5, αvβ8 (Homo sapiens, UniProt P06756+P26012); experiment: Competitive integrin binding assay (isoDGR/STV-HRP) on αvβ8-coated plates; conditions: number in parenthesis
T5 construct: purchased R&D System (Minneapolis, Minn.)
Procedure: as §1, §2

[2] = Asn deamidation of NGR peptides by mass spectrometry; type: physicochemical; conditions: 37° C., 0.1 M ammonium bicarbonate buffer, pH 8.5
Procedure: Orbitrap-ESI mass spectrometry analysis of NGR#3 and NGR-2C at various time points after incubation at 37° C. in 0.1 M ammonium bicarbonate buffer (Ambic), pH 8.5. During the analyses the NGR#3 forms dimers. +0 (no deamidation), +0.5 (one deamidation/molecule) and +1 (two deamidations/molecule) correspond to the difference between found and expected molecular masses in daltons.
It is well known that NGR may undergo Asn deamidation generating isoDGR, an integrin binding motif. To assess whether the molecular scaffold of NGR might affect the deamidation rate we analyzed the molecular masses of NGR#3 and […] (SEQ ID NO:37) (NGR-2C) before and after incubation at 37° C. in 0.1 M ammonium bicarbonate buffer, pH 8.5 (AmBic) for various times. […] The extent of binding of heat-treated NGR-HSA was very similar to that obtained with isoDGR#3-HSA, i.e. a conjugate prepared using a similar peptide having isoAsp in place of Asn (FIG. 17B, right).

[3] = tested on: CD13-positive (HT-1080 and HUVECs) cells; experiment: Binding of NGR peptide/Qdot to CD13-positive cells (fluorescence microscopy); type: cell-based, human; conditions: 2 h at 37° C.
Procedure: (§3) (B) Binding of head-to-tail cyclized NGR peptides and disulphide constrained NGR peptide (ac-NGR-2C-TNF1-11, corresponding to acetylated-[…]) (SEQ ID NO:33) conjugated to fluorescent nanoparticles (Qdot) to HT-1080, human umbilical vein cells (HUVECs), and MCF-7 cells. NGR#/Qdots were prepared using the sulfo-SMCC linker (black, bars), whereas ac-NGR-2C-TNF1-11/Qdot were prepared using the BS3 linker (white, bars). Linker-Qdot, i.e. lacking the peptide, are indicated as None. Quantification of staining intensity was performed by using the Photoshop software. Six images were analyzed for each condition. Representative images are shown. Magnification, ×400; scale bar, 20 μm; red, Qdot; blue, nuclear staining with DAPI.
(§4) The binding of NGR-peptide/Qdot conjugates to HT-1080, HUVECs and MCF-7, was analyzed as follows: the cells were grown in chamber slides (3-4×10^4 cell/well, plated 48 h before the experiment). After washing with DMEM containing 1% fetal bovine serum (binding buffer), each NGR-peptide/Qdot conjugate (3-10 nM, in binding buffer) was added to the cells and left to incubate for 2 h at 37° C. in 5% CO2. […] The cells were then analyzed using an Axioscop 40 FL microscope (Carl Zeiss, Germany) equipped with AxioCam MRc5 digital camera and Axiovison software (Carl Zeiss).

[4] = tested on: CD13-negative MCF-7 cells; experiment: Binding of NGR peptide/Qdot to CD13-negative cells (fluorescence microscopy); type: cell-based, human
Procedure: as §3, §4

Human integrin αvβ3 [5] = target: T6, Human integrin αvβ3 (human, UniProt P06756 31-1048; P05106 27-788, limits assumed); experiment: competitive binding assay, integrin-coated plate, probe isoDGR/STV-HRP
T6 construct: Bought from Immunological Sciences; coated on microtiter plates or spotted on nitrocellulose; also called avb3; purified αvβ3-integrin

Human integrin αvβ5 [6] = target: T7, Human integrin αvβ5 (human, UniProt P06756 31-1048; P18084 24-799, limits assumed); experiment: as above
T7 construct: Bought from Immunological Sciences; coated on microtiter plates

[7] = target: T8, Recombinant human integrin αvβ6 (human, UniProt P06756 31-992; P18564 22-707); experiment: as above
T8 construct: Bought from R&D System

[8] = target: T9, Recombinant human integrin αvβ8 (human, UniProt P06756 31-992; P26012 43-684); experiment: as above
T9 construct: Bought from R&D System; also called αvβ38 [sic]

Human integrin α5β1 [9] = target: T10, Human integrin α5β1 (human, UniProt P08648 42-1049; P05556 21-798, limits assumed); experiment: as above
T10 construct: Bought from Immunological Sciences; coated on microtiter plates

Human integrin αvβ3 [10] = target: T6, Human integrin αvβ3; experiment: as above; remark: listed apart in the source
Human integrin αvβ5 [11] = target: T7, Human integrin αvβ5; experiment: as above; remark: listed apart in the source
[12] = target: T8, Recombinant human integrin αvβ6; experiment: as above; remark: listed apart in the source
[13] = target: T9, Recombinant human integrin αvβ8; experiment: as above; remark: listed apart in the source
Human integrin α5β1 [14] = target: T10, Human integrin α5β1; experiment: as above; remark: listed apart in the source

With `CC(C)[C@H]1C(=O)N[C@@H](CCCNC(=N)N)C(=O)NCC(=O)N[C@@H](CC(=O)O)C(=O)N[C@H](Cc2ccccc2)C(=O)N1C` [Cilengitide, cyclo(arginylglycyl-aspartyl-D-phenylalanyl-N-methyl-valyl)] the tumor growth (WEHI-164 fibrosarcoma) was “can delay the growth”.

With `N=C(N)NCCC[C@@H]1NC(=O)CNC(=O)C[C@@H](C(=O)O)NC(=O)CNC(=O)[C@H](CS)NC(=O)CNC1=O` [isoDGR#1, c(CGisoDGRG)] (GRGCGD-OH; lactam N-6) the “ratio of integrin Ki/αvβ3 Ki (αvβ3)” value (αvβ3) was “(1)^c”, the “ratio of integrin Ki/αvβ3 Ki (αvβ5)” value (αvβ5) was “(2)” and the “ratio of integrin Ki/αvβ3 Ki (αvβ6)” value (αvβ6) was “(14)”. The “ratio of integrin Ki/αvβ3 Ki (α5β1)” value (α5β1) was “(3)” and the “inhibition of endothelial cell adhesion to vitronectin” value [1] was “could efficiently inhibit endothelial cell adhesion”.

For `N=C(N)NCCC[C@@H]1NC(=O)CNC(=O)C[C@@H](C(=O)O)NC(=O)[C@H](CS)NC(=O)CNC(=O)CNC1=O` [isoDGR#3, c(CisoDGRGG)] (GRGGCD-OH; lactam N-6), the “ratio of integrin Ki/αvβ3 Ki (αvβ3)” value (αvβ3) was “(1)”, the “ratio of integrin Ki/αvβ3 Ki (αvβ5)” value (αvβ5) was “(1)” and the “ratio of integrin Ki/αvβ3 Ki (αvβ6)” value (αvβ6) was “(1.3)”. The “ratio of integrin Ki/αvβ3 Ki (αvβ8)” value (αvβ8) was “(1.2)”, the “ratio of integrin Ki/αvβ3 Ki (α5β1)” value (α5β1) was “(0.5)” and the “inhibition of endothelial cell adhesion to vitronectin” value [1] was “could efficiently inhibit endothelial cell adhesion”.

With CNGRCGVRY [NGR-2C, reference compound] the deamidation rate [2] was “faster than that of NGR#3”.

In the case of “NGR#3-Qdot: NGR#3 coupled to sulfo-SMCC-activated Qdot fluorescent nanoparticles (cyclo(CNGRGG); not fully specified (residue 1); also: linker joined to Qdot605 nanoparticle)”, the “binding to CD13-positive cells” value [3] is reported as “could bind CD13-positive cells” and the “binding to CD13-negative cells” value [4] is reported as “failed to bind”.

For “c(CNGRGG) (cyclic; Cyclic peptide) [NGR#3]”, the deamidation rate [2] was “reduce the deamidation rate”.

B1: c(CGisoDGRG) (peptide)
peptide: cyclo(CG[βAsp]GRG)
SMILES: N=C(N)NCCC[C@@H]1NC(=O)CNC(=O)C[C@@H](C(=O)O)NC(=O)CNC(=O)[C@H](CS)NC(=O)CNC1=O
notes: also called isoDGR#1
With B1 the Ki (Human integrin αvβ3 [5]) was 103 nM, the “ratio of integrin Ki/αvβ3 Ki” value (Human integrin αvβ3 [5]) was 1 and the Ki (Human integrin αvβ5 [6]) was 225 nM. The “ratio of integrin Ki/αvβ3 Ki” value (Human integrin αvβ5 [6]) was 2, the Ki [7] was 1470 nM and the “ratio of integrin Ki/αvβ3 Ki” value [7] was 14. For the same molecule, the Ki [8] was 7270 nM, the “ratio of integrin Ki/αvβ3 Ki” value [8] was 70 and the Ki (Human integrin α5β1 [9]) was 320 nM. For the same molecule, the “ratio of integrin Ki/αvβ3 Ki” value (Human integrin α5β1 [9]) was 3.

B2: isoDGR#1-linker conjugate, peak P2 (peptide)
peptide: cyclo(C([SMCC-OH′])G[βAsp]GRG)
notes: HPLC peak P2 (carboxylic form, partial hydrolysis of sulfo-succinimide); also called isoDGR#1-P2
For B2, the Ki (Human integrin αvβ3 [10]) was 33 nM, the “ratio of integrin Ki/αvβ3 Ki” value (Human integrin αvβ3 [10]) was 1 and the Ki (Human integrin αvβ5 [11]) was 52 nM. For the same molecule, the “ratio of integrin Ki/αvβ3 Ki” value (Human integrin αvβ5 [11]) was 1.6, the Ki [12] was 2730 nM and the “ratio of integrin Ki/αvβ3 Ki” value [12] was 80. The Ki [13] was 10500 nM, the “ratio of integrin Ki/αvβ3 Ki” value [13] was 318 and the Ki (Human integrin α5β1 [14]) was 318 nM. The “ratio of integrin Ki/αvβ3 Ki” value (Human integrin α5β1 [14]) was 9.6.

For cyclo(C[βAsp]GRG) (SMILES N=C(N)NCCC[C@@H]1NC(=O)CNC(=O)C[C@@H](C(=O)O)NC(=O)[C@H](CS)NC(=O)CNC1=O, also called isoDGR#2) [c(CisoDGRG)], the Ki (Human integrin αvβ3 [5]) was 483 nM, the “ratio of integrin Ki/αvβ3 Ki” value (Human integrin αvβ3 [5]) was 1 and the Ki (Human integrin αvβ5 [6]) was 492 nM. The “ratio of integrin Ki/αvβ3 Ki” value (Human integrin αvβ5 [6]) was 1, the Ki [7] was 899 nM and the “ratio of integrin Ki/αvβ3 Ki” value [7] was 1.9. The Ki [8] was 1080 nM, the “ratio of integrin Ki/αvβ3 Ki” value [8] was 2.2 and the Ki (Human integrin α5β1 [9]) was 266 nM. For the same molecule, the “ratio of integrin Ki/αvβ3 Ki” value (Human integrin α5β1 [9]) was 0.5.

B3: c(CisoDGRGG) (peptide)
peptide: cyclo(C[βAsp]GRGG)
SMILES: N=C(N)NCCC[C@@H]1NC(=O)CNC(=O)C[C@@H](C(=O)O)NC(=O)[C@H](CS)NC(=O)CNC(=O)CNC1=O
notes: also called isoDGR#3
In the case of B3, the Ki (Human integrin αvβ3 [5]) is reported as 43 nM, the Ki (Human integrin αvβ5 [6]) is reported as 42 nM and the Ki [7] is reported as 58 nM. For the same molecule, the Ki [8] was 54 nM and the Ki (Human integrin α5β1 [9]) was 21 nM.

B4: isoDGR#1-linker conjugate, peak P1 (peptide)
peptide: cyclo(C([SMCC-NH2])G[βAsp]GRG)
notes: HPLC peak P1 (amido form); also called isoDGR#1-P1
In the case of B4, the Ki (Human integrin αvβ3 [10]) is reported as 35 nM, the “ratio of integrin Ki/αvβ3 Ki” value (Human integrin αvβ3 [10]) is reported as 1 and the Ki (Human integrin αvβ5 [11]) is reported as 35 nM. The “ratio of integrin Ki/αvβ3 Ki” value (Human integrin αvβ5 [11]) was 1, the Ki [12] was 583 nM and the “ratio of integrin Ki/αvβ3 Ki” value [12] was 17. The Ki [13] was 5600 nM, the “ratio of integrin Ki/αvβ3 Ki” value [13] was 160 and the Ki (Human integrin α5β1 [14]) was 302 nM. The “ratio of integrin Ki/αvβ3 Ki” value (Human integrin α5β1 [14]) was 8.6.

— patent publication US9561289B2, “Peptides for inhibiting tumor growth” (OSPEDALE SAN RAFFAELE SRL, priority 2012, dated 2017)
